Reference: paper PMC3737525, “Structural and mechanistic basis of anti-termination of Rho-dependent transcription termination by bacteriophage P4 capsid protein Psu” (Nucleic Acids Research, 2013)
Residue numbers refer to the chain shown, from its start. Numbers in names are those of the source.

Legend:
[1] = biological target: T1, C-terminal, HMK-tagged P167L Rho, 32P-labelled (UniProt P0AG30 1-419, P167L, radiolabelled with [γ-32P]ATP in the HMK tag using protein kinase A); assay: Fe-BABE hydroxyl-radical protein cleavage; 0.2 µM 32P-labelled HMK-tagged P167L Rho and 2.5 µM Fe-BABE-labelled Psu, 37°C 30 min, 50 mM MOPS, 120 mM NaCl, 0.1 mM EDTA, 10 mM MgCl2, 10% glycerol, pH 8.0, 1 mM ATP; cleavage started with 4 mM ascorbate and hydrogen peroxide; SDS-PAGE autoradiogram; conditions: both partners purified
T1 construct: Transcription termination factor Rho; also called P^32-labelled HMK-tagged P167L Rho; end-labelled Rho; not shown: HMK (heart muscle protein kinase) tag, C-terminal, kept
T1 sequence (P0AG30 whole entry P167L): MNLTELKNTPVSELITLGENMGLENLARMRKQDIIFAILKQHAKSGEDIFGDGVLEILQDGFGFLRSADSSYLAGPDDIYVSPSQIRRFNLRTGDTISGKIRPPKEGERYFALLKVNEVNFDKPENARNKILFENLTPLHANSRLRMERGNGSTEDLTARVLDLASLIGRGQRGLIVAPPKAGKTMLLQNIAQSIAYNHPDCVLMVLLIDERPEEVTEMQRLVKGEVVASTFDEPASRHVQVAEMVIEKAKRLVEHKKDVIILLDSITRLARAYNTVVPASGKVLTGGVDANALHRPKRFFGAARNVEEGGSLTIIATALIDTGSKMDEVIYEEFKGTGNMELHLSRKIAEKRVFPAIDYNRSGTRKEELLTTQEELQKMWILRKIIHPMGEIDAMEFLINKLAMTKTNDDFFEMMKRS

[2] = biological target: T1, C-terminal, HMK-tagged P167L Rho, …; assay: limited trypsin digestion (protein foot-printing); 0.2 µM 32P-labelled HMK-tagged P167L Rho with 2.5 µM WT Psu in transcription buffer with 1 mM ATP, 10 min 37°C, then increasing trypsin for 1 min; gradient SDS-PAGE autoradiogram; conditions: both partners purified
[3] = biological target: T2, TMRA-labelled S346C Rho (on P167L Rho) (UniProt P0AG30 1-419, P167L | C202S | S346C, tetramethylrhodamine-5-maleimide (TMRA) on the single cysteine at 346); assay: FRET or BRET; fluorescein-labelled Psu (50 nM) and TMRA-labelled Rho (100 nM), 25 mM Tris-HCl pH 8.0, 50 mM KCl, 5 mM MgCl2, 25°C, 15 min; excitation 470 nm, emission enhancement at 570 nm; conditions: both partners purified
T2 construct: Transcription termination factor Rho; natural cysteine removed, made on P167L Rho; also called TMRA–Rho S346C; source: labelled with tetramethylrhodamine-5-maleimide, excess dye removed
T2 sequence (P0AG30 whole entry P167L/C202S/S346C): as the sequence (P0AG30 whole entry P167L) above, with C202S, S346C counted along it

[4] = biological target: T3, TMRA-labelled S153C Rho (on P167L Rho) (UniProt P0AG30 1-419, P167L | C202S | S153C, tetramethylrhodamine-5-maleimide (TMRA) on the single cysteine at 153); assay: as above; conditions: both partners purified
T3 construct: Transcription termination factor Rho; natural cysteine removed, made on P167L Rho; also called TMRA–Rho S153C; source: labelled with tetramethylrhodamine-5-maleimide, excess dye removed
T3 sequence (P0AG30 whole entry S153C/P167L/C202S): as the sequence (P0AG30 whole entry P167L) above, with S153C, C202S counted along it

[5] = biological target: T4, Single Cys derivative S153C of P167L Rho (UniProt P0AG30 1-419, P167L | C202S | S153C); assay: cross-linking; sulpho-LC-SPDP (cysteine to amine): SPDP-derivatized 32P-labelled Psu (~0.5 µM) with single-Cys Rho derivatives (~2 µM), 10 min 25°C, phosphate buffer (100 mM NaH2PO4, 150 mM NaCl, 1 mM EDTA, pH 7.5); non-reducing 12% PAGE; species sensitive to DTT; conditions: both partners purified
T4 construct: Transcription termination factor Rho; natural cysteine removed, made on P167L Rho; also called S153C Rho
T4 sequence (P0AG30 whole entry S153C/P167L/C202S): as the sequence (P0AG30 whole entry P167L) above, with S153C, C202S counted along it

[6] = biological target: T5, Single Cys derivative S346C of P167L Rho (UniProt P0AG30 1-419, P167L | C202S | S346C); assay: as above; conditions: both partners purified
T5 construct: Transcription termination factor Rho; natural cysteine removed, made on P167L Rho; also called S346C Rho
T5 sequence (P0AG30 whole entry P167L/C202S/S346C): as the sequence (P0AG30 whole entry P167L) above, with C202S, S346C counted along it

[7] = biological target: the molecule itself; assay: as above

B1: Fe-BABE-conjugated Psu S181C (natural protein, bacteriophage P4)
chain: MESTALQQAFDTSQNNKAAWLQRKNELAAAEQEYLRLLSGEGRNVSRLDELRNIIEVRKWQVNQAAGRYIRSHEAVQHISIRDRLNDFMQQHGTALAAALAPELMGYSELTAIARNSAIQRATDALREALLSWLAKGEKINYSAQDSDILTTIGFRPDVASVDDSREKFTPAQNMIFSRKCAQLASRQSV
modifications: Fe-BABE conjugated to the single cysteine at 181
notes: Psu (polarity suppressor), capsid-decoration protein of bacteriophage P4; natural cysteines removed; also called Fe-BABE-labelled Psu; source: conjugated with 5-fold molar excess of Fe-BABE (Pierce), desalted
Q: Does B1 bind [1]?
A: Result: binds

B2: WT Psu (in vitro assays) (natural protein, bacteriophage P4)
chain: B1 chain with S13C, S117C, C181S
notes: Psu (polarity suppressor), 21 kDa capsid-decoration protein of bacteriophage P4; purification may stand in the Supplementary Methods
Q: Does B2 bind [2]?
A: Result: binds

B3: Fluorescein-labelled Psu S181C (natural protein, bacteriophage P4)
chain: B1 chain
modifications: fluorescein-5-maleimide on the single cysteine at 181
notes: Psu (polarity suppressor), capsid-decoration protein of bacteriophage P4; natural cysteines removed; also called FL-labelled S181C Psu; source: labelled with fluorescein-5-maleimide, excess dye removed
Q: Does B3 bind [3]?
A: Result: binds

Q: Does B3 bind [4]?
A: Result: binds

B4: SPDP-derivatized, HMK-tagged non-cysteine derivative of Psu (C13S and C117S) (natural protein, bacteriophage P4)
chain: B1 chain with C181S
modifications: 32P end-label in the HMK tag; primary amines (lysines) labelled with sulpho-LC-SPDP
notes: Psu (polarity suppressor), capsid-decoration protein of bacteriophage P4; natural cysteines removed; also called SPDP-labelled Psu; radiolabelled Psu; source: labelled with sulpho-LC-SPDP (Pierce), desalted
Q: Does B4 bind [5]?
A: Result: binds

Q: Does B4 bind [6]?
A: Result: binds

Q: And the “stoichiometry N” value [7]?
A: Its value is 2.

B5: Fluorescein-labelled Psu S161C (natural protein, bacteriophage P4)
chain: B1 chain with S161C, C181S
modifications: fluorescein-5-maleimide on the single cysteine at 161
notes: Psu (polarity suppressor), capsid-decoration protein of bacteriophage P4; natural cysteines removed; also called FL-labelled S161C Psu; source: labelled with fluorescein-5-maleimide, excess dye removed
Q: Does B5 bind [3]?
A: Result: binds

Q: Does B5 bind [4]?
A: Result: binds
